{"source": "patent US20240239855A1", "about": "(CYTOKI PHARMA, published 2024)", "test_in_all_cases": "cell-based or functional assay", "key": {"[1]": {"biological_target": "T1, human IL-22 receptor (human IL-22Ra and human IL-10Rb) on cells (human, UniProt Q8N6P7 16-574; Q08334 20-325)", "T1 sequence (looked up) 1": "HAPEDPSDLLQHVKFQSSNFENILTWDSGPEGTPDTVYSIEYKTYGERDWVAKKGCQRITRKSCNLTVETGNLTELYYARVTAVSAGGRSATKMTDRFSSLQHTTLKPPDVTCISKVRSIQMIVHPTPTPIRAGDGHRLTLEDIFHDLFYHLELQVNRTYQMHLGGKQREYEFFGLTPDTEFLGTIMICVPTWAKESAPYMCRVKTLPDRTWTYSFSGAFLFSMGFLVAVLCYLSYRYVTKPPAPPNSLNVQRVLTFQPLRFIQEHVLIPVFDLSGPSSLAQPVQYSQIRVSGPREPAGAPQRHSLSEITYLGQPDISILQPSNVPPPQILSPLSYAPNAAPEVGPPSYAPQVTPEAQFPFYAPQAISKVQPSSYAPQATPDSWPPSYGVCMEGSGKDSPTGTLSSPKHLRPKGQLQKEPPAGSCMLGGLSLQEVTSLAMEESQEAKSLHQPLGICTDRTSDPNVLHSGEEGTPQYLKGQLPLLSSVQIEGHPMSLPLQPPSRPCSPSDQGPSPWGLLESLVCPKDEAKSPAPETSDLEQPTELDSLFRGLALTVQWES", "T1 sequence (looked up) 2": "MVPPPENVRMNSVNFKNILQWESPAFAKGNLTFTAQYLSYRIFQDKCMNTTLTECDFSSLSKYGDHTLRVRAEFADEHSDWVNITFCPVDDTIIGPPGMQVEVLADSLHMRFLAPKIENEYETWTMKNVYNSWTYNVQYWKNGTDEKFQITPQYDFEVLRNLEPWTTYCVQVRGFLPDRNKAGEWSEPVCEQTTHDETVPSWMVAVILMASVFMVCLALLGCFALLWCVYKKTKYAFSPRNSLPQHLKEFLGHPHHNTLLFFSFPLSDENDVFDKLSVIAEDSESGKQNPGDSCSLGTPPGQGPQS"}, "[2]": {"biological_target": "T1, human IL-22 receptor (human IL-22Ra and …)", "remark": "listed apart in the source"}, "[3]": {"biological_target": "T1, human IL-22 receptor (human IL-22Ra and …)", "remark": "listed apart in the source"}, "[4]": {"biological_target": "T1, human IL-22 receptor (human IL-22Ra and …)", "remark": "listed apart in the source"}, "[5]": {"biological_target": "T1, human IL-22 receptor (human IL-22Ra and …)", "remark": "listed apart in the source"}, "[6]": {"biological_target": "T1, human IL-22 receptor (human IL-22Ra and …)", "remark": "listed apart in the source"}}, "note": "Where two headings read alike, the source gives them in different places."}
{"binder": "native mature human IL-22 (hIL-22) (ligand) APISSHCRLDKSNFQQPYITNRTFMLAKEASLADNNTDVRLIGEKLFHGVSMSERCYLMKQVLNFTLEEVLFPQSDRFQPYMQEVVPFLARLSNRLSTCHIEGDDLHIQRNVQKLKDTVKKLGESGEIKAIGELDLLFMSLRNACI", "values": [{"measurement": "EC50, BHK cell reporter gene assay (STAT3-induced luciferase)", "setting": "[1]", "value": 0.07, "unit": "nM"}, {"measurement": "EC50, BHK cell reporter gene assay (STAT3-induced luciferase)", "setting": "[2]", "value": 0.07, "unit": "nM"}, {"measurement": "EC50, HepG2 cell assay for pSTAT3 (AlphaScreen SureFire STAT3 p-Tyr705)", "setting": "[3]", "value": 3.88, "unit": "nM"}, {"measurement": "EC50, BHK cell reporter gene assay (STAT3-induced luciferase)", "setting": "[4]", "value": 0.07, "unit": "nM"}, {"measurement": "EC50, BHK cell reporter gene assay (STAT3-induced luciferase), second laboratory", "setting": "[5]", "value": 0.027, "unit": "nM"}, {"measurement": "EC50, BHK cell reporter gene assay (STAT3-induced luciferase), second laboratory", "setting": "[6]", "value": 0.03, "unit": "nM"}]}
